We go through one molecule from PMC2973827.

In the data set the target is SARS-CoV nsp12 (RdRp) (SARS-coronavirus, UniProt P0C6X7 4370-5301). The data set is described as follows: EMSA; no Zn2+. Particulars: protein: recombinant; tags: C-terminal His6 (plasmid pASK3-Ub-nsp12-CHis6, ubiquitin fusion vector); label: 5' 32P. In general terms: Mobility shift assays separate free from complexed probe on a gel.

B1: SAV557R/SAV481R primed template duplex (dsRNA)
RNA 1: GCUAUGUGAGAUUAAGUUAU
RNA 2: UUUUUUUUUUAUAACUUAAUCUCACAUAGC
Consider B1, for which the binding result was “binds”.
